# Substitutions are numbered along the chain they refer to.
# T1: Spike (S) protein of live MERS-CoV EMC/2012 (wild type virus) (MERS-CoV, UniProt K9N5Q8 18-1353)
# T1 sequence: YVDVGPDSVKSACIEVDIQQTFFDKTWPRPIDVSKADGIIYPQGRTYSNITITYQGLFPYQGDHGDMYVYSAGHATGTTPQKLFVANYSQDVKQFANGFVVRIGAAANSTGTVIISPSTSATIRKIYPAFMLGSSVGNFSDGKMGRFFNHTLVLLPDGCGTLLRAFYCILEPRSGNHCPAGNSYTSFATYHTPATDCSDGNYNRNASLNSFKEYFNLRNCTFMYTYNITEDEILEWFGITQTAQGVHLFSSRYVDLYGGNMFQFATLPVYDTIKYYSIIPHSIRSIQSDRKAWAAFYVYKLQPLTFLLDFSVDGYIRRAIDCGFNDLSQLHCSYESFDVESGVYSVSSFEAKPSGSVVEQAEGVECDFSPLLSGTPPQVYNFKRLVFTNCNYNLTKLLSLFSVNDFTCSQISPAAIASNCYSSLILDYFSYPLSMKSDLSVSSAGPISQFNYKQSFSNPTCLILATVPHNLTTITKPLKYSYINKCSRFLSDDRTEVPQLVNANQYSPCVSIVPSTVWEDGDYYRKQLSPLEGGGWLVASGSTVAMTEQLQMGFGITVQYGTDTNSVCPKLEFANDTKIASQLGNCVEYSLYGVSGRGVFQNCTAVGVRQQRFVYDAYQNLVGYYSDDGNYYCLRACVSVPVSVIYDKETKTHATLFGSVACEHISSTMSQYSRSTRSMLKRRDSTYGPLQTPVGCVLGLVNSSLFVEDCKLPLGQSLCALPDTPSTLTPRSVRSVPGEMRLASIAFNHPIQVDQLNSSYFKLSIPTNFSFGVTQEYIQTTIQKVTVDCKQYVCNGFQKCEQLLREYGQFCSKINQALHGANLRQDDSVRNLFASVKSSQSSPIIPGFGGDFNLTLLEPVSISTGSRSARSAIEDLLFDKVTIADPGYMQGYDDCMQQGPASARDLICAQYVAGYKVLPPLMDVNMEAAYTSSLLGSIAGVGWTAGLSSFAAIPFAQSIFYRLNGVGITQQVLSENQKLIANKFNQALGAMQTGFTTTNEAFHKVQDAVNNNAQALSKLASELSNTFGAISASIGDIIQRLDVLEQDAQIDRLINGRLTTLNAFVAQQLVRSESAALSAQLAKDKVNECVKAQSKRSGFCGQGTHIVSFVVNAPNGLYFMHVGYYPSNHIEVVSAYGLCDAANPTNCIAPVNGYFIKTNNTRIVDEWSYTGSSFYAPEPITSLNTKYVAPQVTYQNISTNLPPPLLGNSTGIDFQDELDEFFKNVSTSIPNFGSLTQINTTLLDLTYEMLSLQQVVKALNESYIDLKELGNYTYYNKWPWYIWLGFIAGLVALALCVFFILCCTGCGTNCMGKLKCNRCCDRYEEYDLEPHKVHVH
# B1: 1F8 scFvFc (scFv, V domains shown)
# VH: EVQLVQSGAEVKEPGSSVKVSCKASGGTFGSYAINWVRQAPGQRLEWMGWIDAANGNTKYSQKFQGRVTITGDTSASTAYMELSSLRSEDTAVYYCARDRWMTTRAFDIWGQGTMVTVSS
# VL: QPVLTQPPSASGTPGQRVTISCSGSSSNIGSNYVFWYQQLPGMAPKLLISRNNQRPSGVPDRFSGSKSGTSASLAISGPQSEDEADYYCAAWDDSLRGPVFGGGTRVTVL
# B2: 1F8 IgG1 (antibody, V domains shown)
# VH: B1 VH
# VL: B1 VL
# B3: 1E9 scFvFc (scFv, V domains shown)
# VH: QVQLVQSGGGVVQPGRSLRLSCVASEFTFNTYGMHWVRQAPGKGLEWVAAISYDGTKKFYADSLKGRFTISRDNSKNTLYLQMNSLRSEDTAVYYCARSGDSDAFDIWGQGTMVTVSS
# VL: SYELTQPPSVSVSPGQTATITCSGDELGDKFAFWYQQKPGQSPVLVIYQDSKRPSGIPERFSGSNSGNTATLTISGTQALDEADYYCQAWDSNSYVFGTGTKVTVL
# B4: 3A1 scFvFc (scFv, V domains shown)
# VH: QVQLVQSGAEVKKPGSSVKVSCKASGGTFSSYAVSWVRQAPGQGLEWVGRIIPIFGKANYAQKFQGRVTITADKSTSTAYMELSSLRPEDTAVYYCARDQGISANFKDAFDIWGQGTTVTVSS
# VL: ETTLTQSPATLSVSPGERATLSCRASESVGSNLAWYQQKPGQAPSLLIYGASTRATGIPDRFSGSGSGTDFTLTISSLQSEDFAAYYCQQYNNWPLTFGPGTKVEIK
# B5: 3A1 IgG1 (antibody, V domains shown)
# VH: B4 VH
# VL: B4 VL
# B6: 3B12 scFvFc (scFv, V domains shown)
# VH: QVQLVQSGAEVKKPGSSVKVSCKASGGTFSSYAISWVRQAPGQGLEWMGGIIPIFGTANYAQKFQGRVTITADKSTSTAYMELSSLRSEDTAVYYCARASYCSTTSCASGAFDIWGQGTLVTVSS
# VL: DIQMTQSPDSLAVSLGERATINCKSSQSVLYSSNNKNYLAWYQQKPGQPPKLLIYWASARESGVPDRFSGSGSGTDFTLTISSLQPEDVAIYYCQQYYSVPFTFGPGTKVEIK
# B7: 3B11 IgG1 (antibody, V domains shown)
# VH: B6 VH with A99V, S100G, T104S, A108H, S109I, L120T
# VL: ETTLTQSPGTLSLSPGERATLSCRASQSVSSSIAWYQQKPGQAPRLLMFDSSTRATGIPDRFSGSGSGTDFTLNISSLEPEDFAVYYCQQYSSSPYTFGQGTKLEIK
# Biological target: T1, Spike (S) protein of live MERS-CoV …
# Assay: cell-based or functional assay
row,Binder,"IC50 (PRNT50, live wt. virus) [µg/mL]"
1,B1,6.27
2,B2,4.05
3,B3,3.21
4,B4,1.46
5,B5,4.5
6,B6,1.25
7,B7,3.5

# From patent publication US20190194299A1 (Dana-Farber, published 2019)
